US12594347B2, “Nanoparticulate drug delivery systems” (Duke University, priority 2018, dated 2026)
Like-named read-outs stand apart in the source and are kept apart here.

Experiments:
Canine pharmacokinetics = assay: Canine pharmacokinetics
Text: Canine pharmacokinetics and toxicities. […] All procedures and protocols involving care, handling, and dosing for this study were reviewed and approved by the Institutional Animal Care and Use Committee (IACUC) at North Carolina State University College of Veterinary Medicine, which is an AAALAC-accredited facility. The animals' health status were monitored daily by the animal technicians and veterinary staff, paying particular attention for signs of gastrointestinal toxicities including vomiting, diarrhea, lethargy, and inappetence. If noted, supportive care was provided. […] 2 mL blood samples were drawn from jugular vein at 40 s, 15 and 30 min, 2, 4, 8, 24, 48, and 72 h after injection, diluted into 400 μL heparinized PBS (1000 UmL^−1). Sample processing and analysis were performed as with murine pharmacokinetics studies.

[1] = system: C26 murine colon adenocarcinoma cells
Experimental: C26 murine colon adenocarcinoma cells were seeded (5000 cells/well) in a 96-well plate. After 24 h, cells were treated in triplicate with 3-fold serial dilutions of drugs beginning with 100 uM. After 72 h incubation, 20 μL of CellTiter 96 AQueous™ (Promega; Madison, WI) 3-(4,5-dimethlthiazol-2-yl)-5-(3-carboxymethoxphenyl)-2-(4-sulfophenyl)-2H-tetrazolium (MTS) reagent was added to each well followed by 3 h incubation at 37° C. The absorbance at 490 nm was determined using a Victor3™ microplate reader (Perkin Elmer; Waltham, MA). For each plate, blank wells (with no cells) were defined as 0% viability and wells treated with PBS were defined as 100% viability. The background absorbance at 490 nm was corrected by subtracting the average absorbance of the blank wells from each well. The percent viability was defined as the absorbance of each well normalized to the absorbance of wells treated with PBS. Inhibitory concentration (IC 50) values were calculated using a four-parameter logistic fit in the Prism program (GraphPad Software, San Diego, CA, USA).

[2] = Biodistribution in C26 tumor-bearing mice; assay type: in vivo, Balb/C mice; settings: mouse, in vivo
Experimental: Cell culture and tumor inoculation.
Biodistribution. […] At 2 and 24 h after injection, tissues (tumor, muscle, heart, lung, liver, spleen and kidney) were removed, weighed and suspended in 1.0 mL acidified isopropanol (75 mM HCl, 10% water, 90% isopropanol). Tissues were then homogenized using 2 mm diameter zirconia beads and a MiniBeadbeater-1TM (Biospec; Bartlesville, OK) for 2 min at 5,000 beats per minute and were incubated overnight at 4° C. in the dark. The isopropanol extracts were then vortexed, and centrifuged (14,000 RPM, 10 min, 4° C.) and 125 uL of the supernatant was loaded onto a black 96-well plate (BD Biosciences) in duplicate. […] To correct for background tissue fluorescence, tissues were removed from three untreated control mice and were processed similarly. For each tissue, a background (counts per mg tissue) curve was created using 2-fold dilutions of the processed tissues in acidified isopropanol.

[3] = system: MDA-MB-231 human breast cancer cells; assay: In vitro cytotoxicity, MTS assay, MDA-MB-231 cells; assay type: cell-based; settings: 72 h incubation, read-out: half-maximal inhibitory concentration (IC50)
Experimental: In vitro cytotoxicity of the ABDN-CP-PTX versus that of naked CP-PTX and free PTX was determined using the […] MTS assay. […] The MTS assay was repeated twice to ensure validity of results.

[4] = target: T1, human serum albumin (HSA) (Homo sapiens, UniProt P02768); assay: Isothermal titration calorimetry (VP-ITC) of polypeptide carriers with human albumin; assay type: binding; settings: PBS pH 7.4, 37° C.
Experimental: (§1) Interaction with albumin. Interaction of CP monomers and micelles with human and mouse albumin was analyzed by isothermal titration calorimetry (ITC).

[5] = target: T2, mouse serum albumin (MSA) (Mus musculus, UniProt P07724); assay: Isothermal titration calorimetry (Nano ITC) for PTX conjugates with mouse albumin; assay type: binding
T2 sequence (P07724 25-608): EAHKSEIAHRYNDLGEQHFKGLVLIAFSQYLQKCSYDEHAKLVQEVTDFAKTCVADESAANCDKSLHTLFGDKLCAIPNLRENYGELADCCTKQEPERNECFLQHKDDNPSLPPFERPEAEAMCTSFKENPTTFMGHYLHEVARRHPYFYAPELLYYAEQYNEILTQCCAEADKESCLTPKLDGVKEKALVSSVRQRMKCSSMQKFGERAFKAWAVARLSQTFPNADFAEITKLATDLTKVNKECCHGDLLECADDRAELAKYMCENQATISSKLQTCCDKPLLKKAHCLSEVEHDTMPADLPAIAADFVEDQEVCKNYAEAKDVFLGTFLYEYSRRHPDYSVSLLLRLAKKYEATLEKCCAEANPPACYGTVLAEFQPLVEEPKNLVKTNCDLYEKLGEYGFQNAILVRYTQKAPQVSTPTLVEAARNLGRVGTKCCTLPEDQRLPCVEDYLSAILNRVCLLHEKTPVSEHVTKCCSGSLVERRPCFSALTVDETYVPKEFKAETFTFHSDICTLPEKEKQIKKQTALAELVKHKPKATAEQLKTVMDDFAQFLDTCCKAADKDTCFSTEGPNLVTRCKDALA
Experimental: (§2) For PTX conjugates, ITC was conducted using a Nano ITC system (TA Instruments, Utah, USA). Aliquots of 10 uL of 500 uM albumin in PBS were titrated via a 250 μl syringe into CP-PTX at 50 uM concentration, stirring at 300 rpm at 37° C. For background correction, PBS (in the cell) was titrated with albumin (in the syringe) at the same concentrations and conditions. Background was subtracted from the final curves and the binding and thermodynamic parameters binding constant (KD), number of binding sites (n), and enthalpy (ΔH)—were computed by non-linear fitting to an independent-binding site model using TA Instruments NanoAnalyze software.

[6] = target: T1, human serum albumin (HSA); assay: Isothermal titration calorimetry (Nano ITC) for PTX conjugates with human albumin; assay type: binding
Experimental: as §2

[7] = Pharmacokinetics of Alexa488-labeled ABD-ELP and ELP monomers in mice; assay type: in vivo; settings: tail vein, Balb/C mice, two-compartment model
Experimental: A single cysteine was added to the C-terminus of polypeptides and was reacted with Alexa 488-maleimide (Life Technologies, Carlsbad, CA, USA). 50 uL Alexa 488-maleimide at 27.75 uM in DMSO was added to the polypeptide solution in the reaction (250 uM) and was allowed to stir for 3 hr at room temperature in the dark. Unbound Alexa488 was then removed by Amicon ultra-15 centrifugal filter units (MWCO 10 kDa, Millipore) and in PBS. Alexa488 concentration and conjugation efficiency was then determined.
125 uL of the supernatant was loaded onto a black 96-well plate (BD Biosciences) in duplicate. Free Alexa488-maleimide solutions at various known concentrations were prepared in heparinized PBS and were loaded onto the plate as standards. Alexa488 fluorescence was measured on a Wallac Victor3 TM microplate reader (Perkin Elmer; Waltham, MA).

[8] = target: T2, mouse serum albumin (MSA); assay: Isothermal titration calorimetry (VP-ITC) of polypeptide carriers and DOX micelles with mouse albumin; assay type: binding; settings: PBS pH 7.4, 37° C.
Experimental: as §1

[9] = Thermal turbidimetry (transition temperature); assay type: physicochemical
Experimental: Thermal Turbidimetry. Thermal profiles of CPs and CP conjugates were determined by measuring the transition temperature (Tt) over a range of concentrations (5, 10, 25, 50, and 100 uM) in PBS, FBS, and MS using a Cary UV-visible spectrophotometer equipped with temperature controller (Agilent Technologies, CA, USA). […] The transition temperature was defined as the maximum first derivative of the optical density.

[10] = Dynamic and static light scattering; assay type: physicochemical; settings: for % Intensity / Polydispersity / Rh: DLS
Experimental: Light Scattering. Dynamic and static light scattering measurements were performed using an ALV/CGS-3 goniometer system (Germany). […] To study the effect of albumin binding on micellar self-assembly, mouse albumin was added to the samples at 1:1 albumin-CP molar ratio in PBS. Measurements were obtained at 25° C. and 37° C. for angles between 30-150° at 5° increments with each angle consisting of 3 runs and 10 s each at each run. Hydrodynamic radius (Rh) was determined by dynamic light scattering. The radius of gyration (Rg) and the average molecular weight of the particle (MW) were calculated from the slope and intercept of a partial Zimm plot, respectively, using ALV/Dynamic and Static FIT and PLOT software and according. The micelle aggregation number Nagg, or the number of polypeptide chains per nanoparticle, was calculated by dividing the micelle molecular weight by the molecular weight of the polypeptide monomer.
Size and morphology of CP conjugated micelles. The radius and the aggregation number of the self-assembled micelles were determined, in the presence and absence of albumin, by dynamic and static light scattering at 37° C. using an ALV/CGS-3 goniometer system (Germany). Freeze fracture electron microscopy was performed to visualize the micelles and estimate their radius and morphology.

[11] = dogs, cephalic vein, 27 DOX Equiv/m^−2 BSA or 0.9 mg DOX Equiv/kg BW

COc1cccc2c1C(=O)c1c(O)c3c(c(O)c1C2=O)C[C@@](O)(C(=O)CO)C[C@@H]3O[C@H]1C[C@H](N)[C@H](O)[C@H](C)O1 [DOX, doxorubicin, reference compound]
Apparent distribution volume VD (Canine pharmacokinetics; dog, in vivo): 3.85 ± 0.26 mL/g
Plasma clearance CL (Canine pharmacokinetics; dog, in vivo): 0.7875 ± 0.0951 mL/h/g
Distribution half-life β t1/2 (Canine pharmacokinetics; [11]): 3.6 ± 0.5 min
Elimination rate constant kg (Canine pharmacokinetics; [11]): 0.96 ± 0.13 h⁻¹
Plasma to tissue rate constant kpt (Canine pharmacokinetics; [11]): 8.51 ± 1.20 h⁻¹
Elimination half-life α t1/2 (Canine pharmacokinetics; dogs, cephalic vein, 27 DOX Equiv/m^−2 BSA or 0.9 mg DOX Equiv/kg BW, plasma DOX): 2.9 ± 0.8 h
IC50 [1]: 90 nM
accumulation in the spleen (in words) [2]: lower accumulation in the spleen than CP-DOX micelles
distribution to the heart, lung, kidneys, and muscle (in words) [2]: greater extent

CC(=O)O[C@H]1C(=O)[C@@]2(C)[C@H]([C@H](OC(=O)c3ccccc3)[C@]3(O)C[C@H](OC(=O)[C@H](O)[C@@H](NC(=O)c4ccccc4)c4ccccc4)C(C)=C1C3(C)C)[C@]1(OC(C)=O)CO[C@@H]1C[C@@H]2O [free PTX, paclitaxel, reference compound]
IC50 ([3]; MDA-MB-231, printed MDA-MB-213 human breast cancer cells): 9.8 nM

B1: ABDN-ELP: ELP scaffold with albumin binding domain ABDN (SEQ ID NO:6) fused to the N-terminus and C-terminal cysteine sequence (protein)
chain: LAEAKVLANRELDKYGVSDYYKNLINNAKTVEGVKALIDEILAALPVPGAGVPGAGVPGAGVPGAGVPGAGVPGAGVPGAGVPGAGVPGAGVPGAGVPGAGVPGAGVPGAGVPGAGVPGAGVPGAGVPGAGVPGAGVPGAGVPGAGVPGAGVPGAGVPGAGVPGAGVPGAGVPGAGVPGAGVPGAGVPGAGVPGAGVPGAGVPGAGVPGAGVPGAGVPGAGVPGAGVPGAGVPGAGVPGAGVPGAGVPGAGVPGAGVPGAGVPGAGVPGAGVPGAGVPGAGVPGAGVPGAGVPGAGVPGAGVPGAGVPGAGVPGAGVPGAGVPGAGVPGAGVPGAGVPGAGVPGAGVPGAGVPGAGVPGAGVPGAGVPGAGVPGAGVPGAGVPGAGVPGAGVPGAGVPGAGVPGAGVPGAGVPGAGVPGAGVPGAGVPGAGVPGAGVPGAGVPGAGVPGAGVPGAGVPGAGVPGAGVPGAGVPGAGVPGAGVPGAGVPGAGVPGAGVPGAGVPGAGVPGAGVPGAGVPGAGVPGAGVPGAGVPGAGVPGAGVPGAGVPGAGVPGAGVPGAGVPGAGVPGAGVPGAGVPGAGVPGAGVPGAGVPGAGVPGAGVPGAGVPGAGVPGAGVPGAGVPGAGVPGAGVPGAGVPGAGVPGAGVPGAGVPGAGVPGAGVPGAGVPGAGVPGAGVPGAGVPGAGVPGAGVPGAGVPGAGVPGAGVPGAGVPGAGVPGAGVPGAGVPGAGVPGAGVPGAGVPGAGVPGAGVPGAGVPGAGVPGAGVPGAGVPGAGCGGCGGCGGCGGCGGCGGCGGCGG
binding stoichiometry N [4]: 1.04±0.00
n (number of binding sites) ([5]; listed as ABD-CP): 1.05
n (number of binding sites) ([6]; listed as ABD-CP): 0.95
Apparent distribution volume VD [7]: 0.27 ± 0.01 mL/g
Area under the curve AUC [7]: 80.2 ± 1.9 µM·h
Distribution half-life β t1/2 [7]: 1.24 ± 0.295 h
Elimination half-life α t1/2 [7]: 16.8 ± 0.5 h
Elimination rate constant kg [7]: 0.08 ± 0.00 h⁻¹
Plasma clearance CL [7]: 0.012 ± 0.000 mL/h/g
Plasma to tissue rate constant kpt [7]: 0.21 ± 0.06 h⁻¹
Tissue to plasma rate constant ktp [7]: 0.31 ± 0.07 h⁻¹
Elimination half-life α t1/2 ([7]; listed as ABDN-CP): 17 h
binding stoichiometry N [8]: 1.12±0.00
transition temperature ([9]; 100 μM concentration in PBS): 57 °C
Tt ([9]; ABDN-CP fusions for conjugation with Paclitaxel): 48 °C

B2: ABD-CP-PTX (conjugate)
chain: LAEAKVLANRELDKYGVSDYYKNLINNAKTVEGVKALIDEILAALPVPGAGVPGAGVPGAGVPGAGVPGAGVPGAGVPGAGVPGAGVPGAGVPGAGVPGAGVPGAGVPGAGVPGAGVPGAGVPGAGVPGAGVPGAGVPGAGVPGAGVPGAGVPGAGVPGAGVPGAGVPGAGVPGAGVPGAGVPGAGVPGAGVPGAGVPGAGVPGAGVPGAGVPGAGVPGAGVPGAGVPGAGVPGAGVPGAGVPGAGVPGAGVPGAGVPGAGVPGAGVPGAGVPGAGVPGAGVPGAGVPGAGVPGAGVPGAGVPGAGVPGAGVPGAGVPGAGVPGAGVPGAGVPGAGVPGAGVPGAGVPGAGVPGAGVPGAGVPGAGVPGAGVPGAGVPGAGVPGAGVPGAGVPGAGVPGAGVPGAGVPGAGVPGAGVPGAGVPGAGVPGAGVPGAGVPGAGVPGAGVPGAGVPGAGVPGAGVPGAGVPGAGVPGAGVPGAGVPGAGVPGAGVPGAGVPGAGVPGAGVPGAGVPGAGVPGAGVPGAGVPGAGVPGAGVPGAGVPGAGVPGAGVPGAGVPGAGVPGAGVPGAGVPGAGVPGAGVPGAGVPGAGVPGAGVPGAGVPGAGVPGAGVPGAGVPGAGVPGAGVPGAGVPGAGVPGAGVPGAGVPGAGVPGAGVPGAGVPGAGVPGAGVPGAGVPGAGVPGAGVPGAGVPGAGVPGAGVPGAGVPGAGVPGAGVPGAGVPGAGVPGAGVPGAGVPGAGVPGAGVPGAGVPGAGVPGAGCGGCGGCGGCGGCGGCGGCGGCGG
n (number of binding sites) [5]: 0.95
n (number of binding sites) [6]: 0.92
% Intensity ([10]; Concentration 20 μM): 95.4%
Polydispersity ([10]; Concentration 20 μM): 24.6%
Rh ([10]; Concentration 20 μM): 39.6 ± 2.2 nm
% Intensity ([10]; Concentration 40 μM): 96.6%
Polydispersity ([10]; Concentration 40 μM): 26.6%
Rh ([10]; Concentration 40 μM): 44.1 ± 4.7 nm
Nagg ([10]; SLS, 20 μM concentration): 64.5
RG ([10]; SLS, 20 μM concentration): 42.83 nm
aggregation (in words) ([10]; body temperature (37° C.)): no aggregates
IC50 ([3]; printed MDA-MB-213 human breast cancer cells): 10.9 nM
